Publication PMC8727931, “The crystal structure of the FAM134B–GABARAP complex provides mechanistic insights into the selective binding of FAM134 to the GABARAP subfamily” (FEBS Open Bio, 2021)
No end group written: not given here.

B1: human FAM134A fragment (residues 488-513) (domain or fragment)
chain: TTEDFELLDQGELEQLNAELGLEPET
notes: FAM134A, human, residues 488-513; source: E. coli BL21 (DE3), purified
B2: Trx-tagged FAM134B LIR (aa 451-476) (domain or fragment, UniProt Q9H6L5 451-476, looked up)
chain: EGDDFELLDQSELDQIESELGLTQDQ
modifications: also: Trx-tagged
notes: FAM134B (reticulophagy regulator 1), LIR and C-terminal extension, residues 451-476; 451-476 is what the results give for FAM134B LIR; Named 'Trx-tagged FAM134B' for ITC; I take the same construct for SEC-MALS; source: E. coli BL21 (DE3), purified (Ni2+-NTA, size-exclusion chromatography); not shown: Trx-His6, N-terminal, kept

How the values were obtained:
Conditions in all cases: both partners purified
GABARAPL1 [1] = molecular target: T1, GABARAPL1 (UniProt Q8R3R8 1-117); assay: SEC; FAM134A mixed with GABARAPL1 or LC3B at a 1:1 molar ratio; qualitative
T1 construct: GABARAPL1; source: E. coli BL21 (DE3), purified

[2] = molecular target: T2, LC3A (recombinant, for ITC) (UniProt Q91VR7 1-121); assay: ITC; VP-ITC, 25 °C; 50 mM Tris/HCl pH 7.5, 100 mM NaCl, 1 mM DTT, 1 mM EDTA; GABARAP or LC3A (350 uM) injected into Trx-tagged FAM134B (35 uM) in the cell; one-site binding model
T2 construct: LC3A; source: E. coli BL21 (DE3), purified

[3] = molecular target: T3, GABARAP (recombinant, for ITC, SEC and crystallization) (UniProt Q9DCD6 1-117); assay: as above
T3 construct: GABARAP; also called recombinant GABARAP protein; source: E. coli BL21 (DE3), purified
T3 sequence (Q9DCD6 whole entry): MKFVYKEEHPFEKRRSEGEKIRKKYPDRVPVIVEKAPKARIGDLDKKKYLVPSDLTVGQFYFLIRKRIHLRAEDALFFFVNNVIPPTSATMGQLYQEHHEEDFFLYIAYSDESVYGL

GABARAPL1 [4] = molecular target: T1, GABARAPL1; assay: SEC-MALS; Superose 12 10/300GL column; 100 mM NaCl, 50 mM Tris/HCl pH 7.5, 1 mM DTT, 1 mM EDTA; proteins mixed at a 1:1 molar ratio
LC3B = LC3B (UniProt Q9CQV6 1-120); assay: as above

Row | Binder | binding result (GABARAPL1 [1]) | Kd [2] [nM] | Kd [3] [nM] | binding result (GABARAPL1 [4]) | binding result (LC3B)
1 | B1 | binds | – | – | – | –
2 | B2 | – | ~376 | 42 | binds | binds
